{
  "source": "paper PMC11203732",
  "about": "“Structural Evaluation of a Nitroreductase Engineered for Improved Activation of the 5-Nitroimidazole PET Probe SN33623” (International Journal of Molecular Sciences, 2024)",
  "proteins": {"B1": {"name": "E. coli NfsB F70A/F108Y (enzyme)", "chain": "MDIISVALKRHSTKAFDASKKLTPEQAEQIKTLLQYSPSSTNSQPWHFIVASTEEGKARVAKSAAGNYVANERKMLDASHVVVFCAKTAMDDVWLKLVVDQEDADGRYATPEAKAANDKGRKFFADMHRKDLHDDAEWMAKQVYLNVGNFLLGVAALGLDAVPIEGFDAAILDAEFGLKEKGYTSLVVVPVGHHSVEDFNATLPKSRLPQNITLTEV", "notes": "Nitroreductase NfsB of Escherichia coli, 24 kDa subunit, with the substitutions F70A and F108Y; synthetic gene (Twist Bioscience) cloned into pET28a+; Homodimer with one FMN in each of two active sites at the dimer interface; also called mutNfsB; double-mutant F70A/F108Y"}},
  "target": "the molecule itself",
  "assay": "crystal structure; hanging-drop vapor diffusion at 18 °C; 7 mg/mL protein in 40 mM Tris-HCl pH 7.0, 200 mM NaCl; precipitant 0.2 M sodium chloride, 0.1 M sodium acetate pH 4.0, 33% PEG 8000; four molecules in the asymmetric unit; FMN bound",
  "data": [
    {"protein": "B1", "values": [
      {"measurement": "stoichiometry N", "value": 2}
    ]}
  ]
}
